Earlier results on one substance are cited in PMC4554922.

This series concerns the target SAS-6 head domain (UniProt Q6UVJ0).

What is called Kd is a measure of binding affinity in units of concentration. In the case of SAS-6 head domain (from UniProt Q6UVJ0), the Kd is 80 µM.
